# Laboratory results as given in US11814447B2, “Peptide ligands for binding to EphA2” (BICYCLERD LIMITED, priority 2018, dated 2023).
# Starred links: 1 amine or outer side, 2 acyl side, 3 side chain; linkers in the order of their positions; H or OH if unused. Positions of bridges follow the written chain, without caps; N, C: chain ends. Non-standard residues stand in square brackets, D forms with d. Primed or numbered codes have the meaning given here. No end group written: not given here. TBMB′ = 1,3,5-tris(bromomethyl)benzene, 1,3,5-tris(methylene)benzene core, three thioethers to Cys; 4BenzylPro = 4-benzyl-pyrrolidine-2-carboxylic acid; Dip = N[C@H](C(=O)O)C(c1ccccc1)c1ccccc1; 1Nal = N[C@@H](Cc1cccc2ccccc12)C(=O)O; TBMB = c1c(C[*:1])cc(C[*:3])cc1C[*:2]; Ala(cPr) = N[C@@H](CC1CC1)C(=O)O; hArg = N=C(N)NCCCC[C@H](N)C(=O)O; Gly(cPr) = N[C@H](C(=O)O)C1CC1; Cba = N[C@@H](CC1CCC1)C(=O)O; Tle = CC(C)(C)[C@H](N)C(=O)O; Ac5c = NC1(C(=O)O)CCCC1; Ac4c = NC1(C(=O)O)CCC1; Ac3c = NC1(C(=O)O)CC1; Aib = CC(C)(N)C(=O)O; Sar = CNCC(=O)O
# Target: T1, Human EphA2 (Ecto) (Human, UniProt P29317 24-537)
# T1 construct: extracellular domain
# Assay: FP competition, tracer Compound 18
# Method: Peptides without a fluorescent tag were tested in competition with a peptide with a fluorescent tag and a known Kd (Table 2). Peptides were diluted to an appropriate concentration in assay buffer as described in the direct binding assay with a maximum of 5% DMSO, then serially diluted 1 in 2. […] Measurements were conducted as for the direct binding assay, however the gain was determined prior to the first measurement. Data analysis was in Systat Sigmaplot version 12.0 where the mP values were fit to a user defined cubic equation to generate a Ki value: […]
# T1 sequence (P29317 24-537): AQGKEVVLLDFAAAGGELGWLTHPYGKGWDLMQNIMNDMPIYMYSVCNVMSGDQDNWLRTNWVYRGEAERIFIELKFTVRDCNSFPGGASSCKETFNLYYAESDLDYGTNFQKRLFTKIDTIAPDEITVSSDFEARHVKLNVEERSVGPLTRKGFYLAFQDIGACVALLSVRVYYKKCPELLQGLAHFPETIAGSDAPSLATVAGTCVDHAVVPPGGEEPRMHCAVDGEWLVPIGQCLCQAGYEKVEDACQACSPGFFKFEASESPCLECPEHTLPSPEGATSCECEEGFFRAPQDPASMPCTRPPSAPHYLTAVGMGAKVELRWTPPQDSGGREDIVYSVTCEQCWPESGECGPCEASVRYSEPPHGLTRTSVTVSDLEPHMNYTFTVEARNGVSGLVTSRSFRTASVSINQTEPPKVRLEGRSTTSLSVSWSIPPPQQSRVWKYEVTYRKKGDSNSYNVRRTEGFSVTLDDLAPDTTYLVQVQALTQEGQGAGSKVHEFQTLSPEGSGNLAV
row,Binder,Ki [nM]
1,Ac-[Sar][Sar]A[dD][Cba]TCPWGPFWCPVNRPGC (linker 7-14-21 via TBMB′) [Bicycle Compound 160],2.6
2,Ac-[Sar][Sar]A[dD][Gly(cPr)]TCPWGPFWCPVNRPGC (linker 7-14-21 via TBMB′) [Bicycle Compound 162],2.55
3,Ac-[Sar][Sar]A[dD]VTC[Ac3c]WGPFWCPVNRPGC (linker 7-14-21 via TBMB′) [Bicycle Compound 165],185
4,ADVHCP[1Nal]GPFWCPVNRPGCA (linker 5-12-19 via TBMB) [Bicycle Compound 150],0.12
5,Ac-[Sar][Sar]A[dD]VTCP[1Nal]GPFWCPVNRPGC (linker 7-14-21 via TBMB′) [Bicycle Compound 170],0.6
6,Ac-[Sar][Sar]AD[Tle]TCPWGPFWCPVNRPGC (linker 7-14-21 via TBMB′) [Bicycle Compound 164],2.25
7,ADVHCPWG[Aib]FWCPVNRPGCA (linker 5-12-19 via TBMB′) [Bicycle Compound 153],0.51
8,Ac-[Sar][Sar]A[dD]VTCP[1Nal]G[Aib]FWCPVNR[Aib]GC (linker 7-14-21 via TBMB′) [Bicycle Compound 178],2.4
9,Ac-[Sar][Sar]A[dD]VTCPWG[Aib]F[1Nal]CPVNR[Aib]GC (linker 7-14-21 via TBMB′) [Bicycle Compound 179],2.94
10,Ac-[Sar][Sar]A[dD]VTCPWGP[hArg]WCPVNRPGC (linker 7-14-21 via TBMB′) [Bicycle Compound 171],4.88
11,Ac-[Sar][Sar]A[dD]VTC[4BenzylPro]WGPFWCPVNRPGC (linker 7-14-21 via TBMB′) [Bicycle Compound 168],5.03
12,[dD]VTCPWGPFWCPVNRPGC (linker 4-11-18 via TBMB) [Bicycle Compound 185],2.17
13,ADVHCP[Dip]GPFWCPVNRPGCA (linker 5-12-19 via TBMB) [Bicycle Compound 149],52.8
14,Ac-[Sar][Sar]A[dD]VTC[Ac4c]WGPFWCPVNRPGC (linker 7-14-21 via TBMB′) [Bicycle Compound 166],76.7
15,Ac-[Sar][Sar]A[dD]VTCPWGPFWCPVNR[Aib][dD]C (linker 7-14-21 via TBMB′) [Bicycle Compound 177],4.43
16,Ac-[Sar][Sar]A[dD][Ala(cPr)]TCPWGPFWCPVNRPGC (linker 7-14-21 via TBMB′) [Bicycle Compound 161],4.44
17,Ac-[Sar][Sar]ADVTCPWGPFWCPVNRPGC (linker 7-14-21 via TBMB′) [Bicycle Compound 157],0.91
18,Ac-[Sar][Sar]ADVHCPWGPFWCPVNRPGC (linker 7-14-21 via TBMB) [Bicycle Compound 148],1.2
19,Ac-[Sar][Sar]A[dD][dD]TCPWGPFWCPVNRPGC (linker 7-14-21 via TBMB′) [Bicycle Compound 159],2.85
20,Ac-[Sar][Sar]A[dD]VTCPWGPFWCPLNRPGC (linker 7-14-21 via TBMB′) [Bicycle Compound 174],9.1
21,Ac-[Sar][Sar]A[dD]VTCPWGPNWCPVNRPGC (linker 7-14-21 via TBMB′) [Bicycle Compound 172],3.96
22,Ac-[Sar][Sar]A[dD]VTCP[1Nal]G[Aib]F[1Nal]CPVNR[Aib]GC (linker 7-14-21 via TBMB′) [Bicycle Compound 181],1.37
23,Ac-[Sar][Sar]A[dD]VTCPWG[Aib]FWCP[Tle]NR[Aib]GC (linker 7-14-21 via TBMB′) [Bicycle Compound 180],3.83
24,Ac-[Sar][Sar]A[dD]VTC[Ac5c]WGPFWCPVNRPGC (linker 7-14-21 via TBMB′) [Bicycle Compound 167],138

# Next, values leading:
row,Ki [nM],Binder
1,3.1,AHDVPCP[1Nal]G[Aib]FWCP[Tle]N[hArg]PGC (linker 6-13-20 via TBMB) [Bicycle Compound 191]
2,1.3,AHDVPCPWGPF[1Nal]CPVNRPGC (linker 6-13-20 via TBMB) [Bicycle Compound 189]
3,1.34,[dD]VTCP[1Nal]G[Aib]F[1Nal]CP[Tle]NR[Aib]GC (linker 4-11-18 via TBMB′) [Bicycle Compound 186]
4,0.7,AHDVPCP[1Nal]GPFWCP[Tle]NRPGC (linker 6-13-20 via TBMB) [Bicycle Compound 190]
5,1.45,AHDVPCP[1Nal]GPFWCPVNRPGC (linker 6-13-20 via TBMB) [Bicycle Compound 188]
6,1.6,Ac-[Sar][Sar]H[dD]VPCP[1Nal]G[Aib]FWCPVNR[Aib]GC (linker 7-14-21 via TBMB) [Bicycle Compound 266]
7,1.24,Ac-[Sar][Sar]H[dD]VPCPWG[Aib]F[1Nal]CPVNR[Aib]GC (linker 7-14-21 via TBMB) [Bicycle Compound 268]
8,0.32,AHDVPCP[1Nal]GPFWCPVNRPGCA (linker 6-13-20 via TBMB′) [Bicycle Compound 187]
9,1.09,Ac-[Sar][Sar][dH]DVPCPWGPFWCPVNRPGC (linker 7-14-21 via TBMB) [Bicycle Compound 224]
10,0.63,Ac-[Sar][Sar]H[dD]VPCP[1Nal]G[Aib]F[1Nal]CPVNR[Aib]GC (linker 7-14-21 via TBMB) [Bicycle Compound 261]
11,1.52,Ac-[Sar][Sar]H[dD]VPCPWG[Aib]FWCP[Tle]NR[Aib]GC (linker 7-14-21 via TBMB) [Bicycle Compound 270]
